Reference: paper PMC314469, “Protein Interaction Networks by Proteome Peptide Scanning” (PLoS Biology, 2004)

Key:
Experiment in all cases: SPOT array
[1] = target: T1, Boi2 SH3 (BOI2_YEAST), P39969
T1 chain: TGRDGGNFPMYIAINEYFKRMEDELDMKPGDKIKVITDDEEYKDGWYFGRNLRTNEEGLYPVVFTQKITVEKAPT

[2] = target: T2, Boi1 SH3 (BOI1_YEAST), P38041
T2 chain: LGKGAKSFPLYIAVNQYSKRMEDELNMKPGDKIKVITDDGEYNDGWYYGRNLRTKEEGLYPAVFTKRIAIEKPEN

[3] = target: T3, Yfr024 SH3 (LSB3_YEAST), P43603
T3 chain: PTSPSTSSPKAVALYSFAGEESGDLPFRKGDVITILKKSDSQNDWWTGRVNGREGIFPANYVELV

[4] = target: T4, Rvs167 SH3 (RV167_YEAST), P39743
T4 chain: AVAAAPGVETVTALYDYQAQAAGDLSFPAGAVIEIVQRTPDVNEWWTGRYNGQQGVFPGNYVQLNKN

[5] = target: T5, Yhr016c SH3 (YSC84_YEAST), P32793
T5 chain: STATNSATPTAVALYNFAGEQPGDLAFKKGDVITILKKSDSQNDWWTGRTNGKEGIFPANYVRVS

Row | Binder | normalised SPOT signal, Boehringer light units (BLU); mean over the file's lines of this peptide [1] | normalised SPOT signal, Boehringer light units (BLU); mean over the file's lines of this peptide [2] | normalised SPOT signal, Boehringer light units (BLU); mean over the file's lines of this peptide [3] | normalised SPOT signal, Boehringer light units (BLU); mean over the file's lines of this peptide [4] | normalised SPOT signal, Boehringer light units (BLU); mean over the file's lines of this peptide [5]
1 | HGVPVVPSREVTIN [YER014W 440-453] | 33.6 | 140 | 555 | 82 | 765
2 | HLDPEAPDKLLENS [YOR301W 109-122] | 62.5 | 161 | 35.4 | 29.1 | 329
3 | HLPPPPPPRAQQQQ [YOR329C 664-677] | 15.5 | 61 | 6510 | 1900 | 1630
4 | HNSPVAPNRYAANL [YBR038W 84-97] | 33.8 | 157 | 155 | 87.3 | 244
5 | HPDPADPAKELELN [YDR037W 377-390] | 12.4 | 72 | -0 | 50 | 161
6 | HQIPSAPQRLVSII [YMR136W 114-127] | 18.8 | 86.7 | 572 | 16 | 216
7 | HRGPRRPQKNRYNT [YMR280C 1394-1407] | 61 | 9.8 | 1710 | 60.7 | 161
8 | HSEPAIPYRETFLS [YNL163C 746-759] | 14.6 | 83.3 | 92.9 | 35.1 | 634
9 | HSSPIAPSKAKRQR [YCR065W 64-77] | 170 | 673 | 1350 | 561 | 142
10 | HSTPVTPRRLFTSQ [YGL003C 171-184] | 77.8 | 2290 | 16700 | 282 | 6510
11 | HTPPLNPSKKSASI [YOR371C 699-712] | 82.2 | 107 | 15.3 | 28.1 | 90.5
12 | IAAPKKPRKPRQTK [YGL025C 241-254] | 53.7 | 49.7 | 3170 | 95.9 | 126
13 | IAHPVRPHRAITMT [YBR276C 631-644] | 145 | 3310 | 2660 | 86.7 | 225
14 | IAYPFYPFKKLGRQ [YGR165W 32-45] | 32.7 | 75.8 | 813 | 16.3 | 230
15 | IAYPGDPLRFHSHL [YAR008W 207-220] | 143 | 12 | 93.2 | 18.3 | 196
16 | IELPHDPHKHFHRD [YNL091W 543-556] | 23.2 | 126 | 0 | 20.5 | 77.2
17 | IELPTQPVRKNPEA [YOR042W 147-160] | 20.1 | 41.7 | 550 | 47 | 112
